{
  "source": "patent US20110166062A1",
  "about": "(INDIANA UNIVERSITY RESEARCH AND TECHNOLOGY, published 2011)",
  "binders": {"B1": {"name": "mt-167 (peptide)", "peptide": "YSQGTFTSDYSIYLDEEAAKEFVNWLLAGGPSSGAPPPS-NH2", "modifications": "lactam 17-20; N-terminus assumed", "SMILES": "CC[C@H](C)[C@H](NC(=O)[C@H](CO)NC(=O)[C@H](Cc1ccc(O)cc1)NC(=O)[C@H](CC(=O)O)NC(=O)[C@H](CO)NC(=O)[C@@H](NC(=O)[C@H](Cc1ccccc1)NC(=O)[C@@H](NC(=O)CNC(=O)[C@H](CCC(N)=O)NC(=O)[C@H](CO)NC(=O)[C@@H](N)Cc1ccc(O)cc1)[C@@H](C)O)[C@@H](C)O)C(=O)N[C@@H](Cc1ccc(O)cc1)C(=O)N[C@@H](CC(C)C)C(=O)N[C@@H](CC(=O)O)C(=O)N[C@@H](CCC(=O)O)C(=O)N[C@H]1CCC(=O)NCCCC[C@@H](C(=O)N[C@@H](CCC(=O)O)C(=O)N[C@@H](Cc2ccccc2)C(=O)N[C@H](C(=O)N[C@@H](CC(N)=O)C(=O)N[C@@H](Cc2c[nH]c3ccccc23)C(=O)N[C@@H](CC(C)C)C(=O)N[C@@H](CC(C)C)C(=O)N[C@@H](C)C(=O)NCC(=O)NCC(=O)N2CCC[C@H]2C(=O)N[C@@H](CO)C(=O)N[C@@H](CO)C(=O)NCC(=O)N[C@@H](C)C(=O)N2CCC[C@H]2C(=O)N2CCC[C@H]2C(=O)N2CCC[C@H]2C(=O)N[C@@H](CO)C(N)=O)C(C)C)NC(=O)[C@H](C)NC(=O)[C@H](C)NC1=O"}, "B2": {"name": "mt-168 (peptide)", "peptide": "YSQGTFTSDYSIYLDEQKAKEFVNWLLAGGPSSGAPPPS-NH2", "modifications": "lactam 18-21; N-terminus assumed", "SMILES": "CC[C@H](C)[C@H](NC(=O)[C@H](CO)NC(=O)[C@H](Cc1ccc(O)cc1)NC(=O)[C@H](CC(=O)O)NC(=O)[C@H](CO)NC(=O)[C@@H](NC(=O)[C@H](Cc1ccccc1)NC(=O)[C@@H](NC(=O)CNC(=O)[C@H](CCC(N)=O)NC(=O)[C@H](CO)NC(=O)[C@@H](N)Cc1ccc(O)cc1)[C@@H](C)O)[C@@H](C)O)C(=O)N[C@@H](Cc1ccc(O)cc1)C(=O)N[C@@H](CC(C)C)C(=O)N[C@@H](CC(=O)O)C(=O)N[C@@H](CCC(=O)O)C(=O)N[C@@H](CCC(N)=O)C(=O)N[C@H]1CCCCNC(=O)CC[C@@H](C(=O)N[C@@H](Cc2ccccc2)C(=O)N[C@H](C(=O)N[C@@H](CC(N)=O)C(=O)N[C@@H](Cc2c[nH]c3ccccc23)C(=O)N[C@@H](CC(C)C)C(=O)N[C@@H](CC(C)C)C(=O)N[C@@H](C)C(=O)NCC(=O)NCC(=O)N2CCC[C@H]2C(=O)N[C@@H](CO)C(=O)N[C@@H](CO)C(=O)NCC(=O)N[C@@H](C)C(=O)N2CCC[C@H]2C(=O)N2CCC[C@H]2C(=O)N2CCC[C@H]2C(=O)N[C@@H](CO)C(N)=O)C(C)C)NC(=O)[C@H](CCCCN)NC(=O)[C@H](C)NC1=O"}, "B3": {"name": "mt-169 (peptide)", "peptide": "Y[Aib]QGTFTSDYSIYLDEQAAKEFVCWLLAG-NH2", "modifications": "lactam 16-20; N-terminus assumed", "SMILES": "CC[C@H](C)[C@H](NC(=O)[C@H](CO)NC(=O)[C@H](Cc1ccc(O)cc1)NC(=O)[C@H](CC(=O)O)NC(=O)[C@H](CO)NC(=O)[C@@H](NC(=O)[C@H](Cc1ccccc1)NC(=O)[C@@H](NC(=O)CNC(=O)[C@H](CCC(N)=O)NC(=O)C(C)(C)NC(=O)[C@@H](N)Cc1ccc(O)cc1)[C@@H](C)O)[C@@H](C)O)C(=O)N[C@@H](Cc1ccc(O)cc1)C(=O)N[C@@H](CC(C)C)C(=O)N[C@@H](CC(=O)O)C(=O)N[C@H]1CCC(=O)NCCCC[C@@H](C(=O)N[C@@H](CCC(=O)O)C(=O)N[C@@H](Cc2ccccc2)C(=O)N[C@H](C(=O)N[C@@H](CS)C(=O)N[C@@H](Cc2c[nH]c3ccccc23)C(=O)N[C@@H](CC(C)C)C(=O)N[C@@H](CC(C)C)C(=O)N[C@@H](C)C(=O)NCC(N)=O)C(C)C)NC(=O)[C@H](C)NC(=O)[C@H](C)NC(=O)[C@H](CCC(N)=O)NC1=O"}, "B4": {"name": "mt-166 (peptide)", "peptide": "Y[dA]QGTFTSDYSIYLDEQAAKEFVNWLLAGGPSSGAPPPSC-NH2", "modifications": "lactam 16-20; N-terminus assumed", "SMILES": "CC[C@H](C)[C@H](NC(=O)[C@H](CO)NC(=O)[C@H](Cc1ccc(O)cc1)NC(=O)[C@H](CC(=O)O)NC(=O)[C@H](CO)NC(=O)[C@@H](NC(=O)[C@H](Cc1ccccc1)NC(=O)[C@@H](NC(=O)CNC(=O)[C@H](CCC(N)=O)NC(=O)[C@@H](C)NC(=O)[C@@H](N)Cc1ccc(O)cc1)[C@@H](C)O)[C@@H](C)O)C(=O)N[C@@H](Cc1ccc(O)cc1)C(=O)N[C@@H](CC(C)C)C(=O)N[C@@H](CC(=O)O)C(=O)N[C@H]1CCC(=O)NCCCC[C@@H](C(=O)N[C@@H](CCC(=O)O)C(=O)N[C@@H](Cc2ccccc2)C(=O)N[C@H](C(=O)N[C@@H](CC(N)=O)C(=O)N[C@@H](Cc2c[nH]c3ccccc23)C(=O)N[C@@H](CC(C)C)C(=O)N[C@@H](CC(C)C)C(=O)N[C@@H](C)C(=O)NCC(=O)NCC(=O)N2CCC[C@H]2C(=O)N[C@@H](CO)C(=O)N[C@@H](CO)C(=O)NCC(=O)N[C@@H](C)C(=O)N2CCC[C@H]2C(=O)N2CCC[C@H]2C(=O)N2CCC[C@H]2C(=O)N[C@@H](CO)C(=O)N[C@@H](CS)C(N)=O)C(C)C)NC(=O)[C@H](C)NC(=O)[C@H](C)NC(=O)[C@H](CCC(N)=O)NC1=O"}, "B5": {"name": "mt-280 (peptide)", "peptide": "Y[Aib]QGTFTSDYSIYLDKQAA[Aib]EFVNWLLAGGPSSGAPPPSK-NH2", "modifications": "N-terminus assumed", "SMILES": "CC[C@H](C)[C@H](NC(=O)[C@H](CO)NC(=O)[C@H](Cc1ccc(O)cc1)NC(=O)[C@H](CC(=O)O)NC(=O)[C@H](CO)NC(=O)[C@@H](NC(=O)[C@H](Cc1ccccc1)NC(=O)[C@@H](NC(=O)CNC(=O)[C@H](CCC(N)=O)NC(=O)C(C)(C)NC(=O)[C@@H](N)Cc1ccc(O)cc1)[C@@H](C)O)[C@@H](C)O)C(=O)N[C@@H](Cc1ccc(O)cc1)C(=O)N[C@@H](CC(C)C)C(=O)N[C@@H](CC(=O)O)C(=O)N[C@@H](CCCCN)C(=O)N[C@@H](CCC(N)=O)C(=O)N[C@@H](C)C(=O)N[C@@H](C)C(=O)NC(C)(C)C(=O)N[C@@H](CCC(=O)O)C(=O)N[C@@H](Cc1ccccc1)C(=O)N[C@H](C(=O)N[C@@H](CC(N)=O)C(=O)N[C@@H](Cc1c[nH]c2ccccc12)C(=O)N[C@@H](CC(C)C)C(=O)N[C@@H](CC(C)C)C(=O)N[C@@H](C)C(=O)NCC(=O)NCC(=O)N1CCC[C@H]1C(=O)N[C@@H](CO)C(=O)N[C@@H](CO)C(=O)NCC(=O)N[C@@H](C)C(=O)N1CCC[C@H]1C(=O)N1CCC[C@H]1C(=O)N1CCC[C@H]1C(=O)N[C@@H](CO)C(=O)N[C@@H](CCCCN)C(N)=O)C(C)C"}, "B6": {"name": "mt-283 (peptide)", "peptide": "Y[Aib]EGTFTSDK(Palmitoyl)SIYLDKQAA[Aib]EFVNWLLAG-NH2", "modifications": "N-terminus assumed", "SMILES": "CCCCCCCCCCCCCCCC(=O)NCCCC[C@H](NC(=O)[C@H](CC(=O)O)NC(=O)[C@H](CO)NC(=O)[C@@H](NC(=O)[C@H](Cc1ccccc1)NC(=O)[C@@H](NC(=O)CNC(=O)[C@H](CCC(=O)O)NC(=O)C(C)(C)NC(=O)[C@@H](N)Cc1ccc(O)cc1)[C@@H](C)O)[C@@H](C)O)C(=O)N[C@@H](CO)C(=O)N[C@H](C(=O)N[C@@H](Cc1ccc(O)cc1)C(=O)N[C@@H](CC(C)C)C(=O)N[C@@H](CC(=O)O)C(=O)N[C@@H](CCCCN)C(=O)N[C@@H](CCC(N)=O)C(=O)N[C@@H](C)C(=O)N[C@@H](C)C(=O)NC(C)(C)C(=O)N[C@@H](CCC(=O)O)C(=O)N[C@@H](Cc1ccccc1)C(=O)N[C@H](C(=O)N[C@@H](CC(N)=O)C(=O)N[C@@H](Cc1c[nH]c2ccccc12)C(=O)N[C@@H](CC(C)C)C(=O)N[C@@H](CC(C)C)C(=O)N[C@@H](C)C(=O)NCC(N)=O)C(C)C)[C@@H](C)CC"}, "B7": {"name": "mt-282 (peptide)", "peptide": "Y[Aib]EGTFTSDK(Myristoyl)SIYLDKQAA[Aib]EFVNWLLAG-NH2", "modifications": "N-terminus assumed", "SMILES": "CCCCCCCCCCCCCC(=O)NCCCC[C@H](NC(=O)[C@H](CC(=O)O)NC(=O)[C@H](CO)NC(=O)[C@@H](NC(=O)[C@H](Cc1ccccc1)NC(=O)[C@@H](NC(=O)CNC(=O)[C@H](CCC(=O)O)NC(=O)C(C)(C)NC(=O)[C@@H](N)Cc1ccc(O)cc1)[C@@H](C)O)[C@@H](C)O)C(=O)N[C@@H](CO)C(=O)N[C@H](C(=O)N[C@@H](Cc1ccc(O)cc1)C(=O)N[C@@H](CC(C)C)C(=O)N[C@@H](CC(=O)O)C(=O)N[C@@H](CCCCN)C(=O)N[C@@H](CCC(N)=O)C(=O)N[C@@H](C)C(=O)N[C@@H](C)C(=O)NC(C)(C)C(=O)N[C@@H](CCC(=O)O)C(=O)N[C@@H](Cc1ccccc1)C(=O)N[C@H](C(=O)N[C@@H](CC(N)=O)C(=O)N[C@@H](Cc1c[nH]c2ccccc12)C(=O)N[C@@H](CC(C)C)C(=O)N[C@@H](CC(C)C)C(=O)N[C@@H](C)C(=O)NCC(N)=O)C(C)C)[C@@H](C)CC"}},
  "note": "Bridges are numbered along the chain shown (N, C = ends). Where no end group is shown, it is not given here. [ ]: non-standard residue; d: D form. The star is where a group is joined. Palmitoyl = CCCCCCCCCCCCCCCC(=O)*; Myristoyl = CCCCCCCCCCCCCC(=O)*; Aib = CC(C)(N)C(=O)O",
  "data": [
    {"biological_target": "glucagon receptor (UniProt P47871 26-477, limits assumed)", "sequence (P47871 26-477 limits assumed)": "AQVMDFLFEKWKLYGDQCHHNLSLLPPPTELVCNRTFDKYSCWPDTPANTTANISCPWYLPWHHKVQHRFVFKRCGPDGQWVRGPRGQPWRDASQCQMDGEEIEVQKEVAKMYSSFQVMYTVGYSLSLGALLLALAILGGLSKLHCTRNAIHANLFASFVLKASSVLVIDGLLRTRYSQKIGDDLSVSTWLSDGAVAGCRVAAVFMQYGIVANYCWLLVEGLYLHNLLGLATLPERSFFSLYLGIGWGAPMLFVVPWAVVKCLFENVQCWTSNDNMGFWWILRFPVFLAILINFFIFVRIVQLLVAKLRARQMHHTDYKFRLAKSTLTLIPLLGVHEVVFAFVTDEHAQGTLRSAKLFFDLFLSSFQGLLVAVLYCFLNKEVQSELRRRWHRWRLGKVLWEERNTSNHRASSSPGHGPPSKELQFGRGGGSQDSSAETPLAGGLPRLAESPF", "experiment": "cell-based or functional assay", "units": {"EC50": "pM", "relative activity": "%"}, "values": [
      {"binder": "B1", "EC50": 362, "relative activity": 34.5},
      {"binder": "B2", "EC50": 2610, "relative activity": 4.79},
      {"binder": "B3", "EC50": 199, "relative activity": 51.3},
      {"binder": "B4", "EC50": 875, "relative activity": 9.83}
    ]},
    {"biological_target": "GLP-1 receptor (UniProt P43220 24-463, limits assumed)", "experiment": "cell-based or functional assay", "units": {"EC50": "pM", "relative activity": "%"}, "values": [
      {"binder": "B1", "EC50": 315, "relative activity": 7.94},
      {"binder": "B2", "EC50": 1720, "relative activity": 1.45},
      {"binder": "B3", "EC50": 57, "relative activity": 54.4},
      {"binder": "B4", "EC50": 134, "relative activity": 26.9}
    ]},
    {"biological_target": "T1, GIP receptor (UniProt P48546 22-466)", "T1 sequence (looked up)": "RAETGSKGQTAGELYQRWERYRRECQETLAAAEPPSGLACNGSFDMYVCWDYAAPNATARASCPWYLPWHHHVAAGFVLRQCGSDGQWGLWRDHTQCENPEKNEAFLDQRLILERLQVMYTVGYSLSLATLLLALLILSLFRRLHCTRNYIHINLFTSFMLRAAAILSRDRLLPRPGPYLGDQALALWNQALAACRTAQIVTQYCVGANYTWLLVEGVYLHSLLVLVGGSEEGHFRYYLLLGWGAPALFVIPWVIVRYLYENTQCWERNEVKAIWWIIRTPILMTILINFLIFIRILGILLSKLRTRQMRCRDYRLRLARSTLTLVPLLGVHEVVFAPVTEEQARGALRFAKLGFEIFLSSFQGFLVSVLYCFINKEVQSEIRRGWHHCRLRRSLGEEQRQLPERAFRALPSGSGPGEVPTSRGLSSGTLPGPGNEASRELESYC", "experiment": "cell-based or functional assay", "units": {"EC50": "pM", "relative activity": "%"}, "values": [
      {"binder": "B1", "EC50": 399, "relative activity": 5.01},
      {"binder": "B2", "EC50": 6240, "relative activity": 0.32},
      {"binder": "B3", "EC50": 142, "relative activity": 14.8},
      {"binder": "B4", "EC50": 320, "relative activity": 5.94}
    ]},
    {"biological_target": "T2, GIP receptor (UniProt P48546 22-466)", "T2 sequence (looked up)": "T1 sequence (looked up)", "experiment": "cell-based or functional assay", "units": {"EC50": "pM"}, "values": [
      {"binder": "B5", "EC50": 14.9},
      {"binder": "B6", "EC50": 12.2},
      {"binder": "B7", "EC50": 13.3}
    ]}
  ]
}
